# Reference: the supplement of paper PMC10567573
# B1: C8orf76 (parent)
# chain: KLAEAYLNLGPALSAALASSQKQH
# Variants of: B1
# Assay: protein stability index of a GFP-peptide fusion (GPS, HEK-293T) (PSI 1-6); higher = more stable
# Settings: c terminus: a fixed tail appended
# 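Note: lentivirally expressed fusions sorted by FACS into six bins by GFP to DsRed ratio, PSI derived from sequencing read proportions per bin multiplied by bin number.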
row,Variant,protein stability index
1,KLAEAYLNLGPAKSAALASSQKQH,2.36
2,KLAEAYLNLGPAYSAALASSQKQH,2.14
3,KLAEAYLNLGPACSAALASSQKQH,2.77
4,KLAEAYLNLGPAPSAALASSQKQH,2.82
5,KLAEAYLNLGPAMSAALASSQKQH,1.8
6,KLAEAYLNLGPASSAALASSQKQH,2.54
7,KLAEAYLNLGPAHSAALASSQKQH,2.23
8,KLAEAYLNLGPATSAALASSQKQH,2.65
9,KLAEAYLNLGPAQSAALASSQKQH,2.76
10,KLAEAYLNLGPARSAALASSQKQH,2.24
11,KLAEAYLNLGPANSAALASSQKQH,2.31
12,KLAEAYLNLGPADSAALASSQKQH,3.15
13,KLAEAYLNLGPAESAALASSQKQH,3.29
14,KLAEAYLNLGPAGSAALASSQKQH,2.65
15,KLAEAYLNLGPAWSAALASSQKQH,2.06
16,KLAEAYLNLGPAVSAALASSQKQH,1.48
17,KLAEAYLNLGPAASAALASSQKQH,1.99
18,KLAEAYLNLGPAISAALASSQKQH,3.23
19,KLAEAYLNLGPAFSAALASSQKQH,2.03
20,KLAEAYLNLGPALSAALTSSQKQH,1.52
21,KLAEAYLNLGPALSAALFSSQKQH,3
22,KLAEAYLNLGPALSAALNSSQKQH,1.19
23,KLAEAYLNLGPALSAALLSSQKQH,3.18
24,KLAEAYLNLGPALSAALYSSQKQH,2.37

row,Variant,protein stability index
1,KLAEAYLNLGPALSAALSSSQKQH,1.99
2,KLAEAYLNLGPALSAALHSSQKQH,2.73
3,KLAEAYLNLGPALSAALDSSQKQH,2.22
4,KLAEAYLNLGPALSAALQSSQKQH,1.9
5,KLAEAYLNLGPALSAALPSSQKQH,2.04
6,KLAEAYLNLGPALSAALMSSQKQH,3.46
7,KLAEAYLNLGPALSAALESSQKQH,1.95
8,KLAEAYLNLGPALSAALISSQKQH,2.4
9,KLAEAYLNLGPALSAALVSSQKQH,2.36
10,KLAEAYLNLGPALSAALKSSQKQH,2.02
11,KLAEAYLNLGPALSAALRSSQKQH,2.67
12,KLAEAYLNLGPALSAALCSSQKQH,1.6
13,KLAEAYLNLGPALSAALGSSQKQH,2.29
14,KLAEAYLNLGRALSAALASSQKQH,3.7
15,KLAEAYLNLGMALSAALASSQKQH,2.9
16,KLAEAYLNLGFALSAALASSQKQH,2.45
17,KLAEAYLNLGAALSAALASSQKQH,2.16
18,KLAEAYLNLGKALSAALASSQKQH,1.94
19,KLAEAYLNLGYALSAALASSQKQH,1.26
20,KLAEAYLNLGQALSAALASSQKQH,2.28
21,KLAEAYLNLGDALSAALASSQKQH,2.26
22,KLAEAYLNLGIALSAALASSQKQH,2.53
23,KLAEAYLNLGEALSAALASSQKQH,2.52
24,KLAEAYLNLGCALSAALASSQKQH,2.49

row,Variant,protein stability index
1,KLAEAYLNLGSALSAALASSQKQH,3.4
2,KLAEAYLNLGHALSAALASSQKQH,1.84
3,KLAEAYLNLGPALEAALASSQKQH,1.23
4,KLAEAYLNLGPALFAALASSQKQH,4.03
5,KLAEAYLNLGPALMAALASSQKQH,3.24
6,KLAEAYLNLGPALPAALASSQKQH,1.81
7,KLAEAYLNLGPALAAALASSQKQH,1.47
8,KLAEAYLNLGPALYAALASSQKQH,2.35
9,KLAEAYLNLGPALQAALASSQKQH,2.93
10,KLAEAYLNLGPALHAALASSQKQH,2.18
11,KLAEAYLNLGPALGAALASSQKQH,2.12
12,KLAEAYLNLGPALTAALASSQKQH,3.75
13,KLAEAYLNLGPALNAALASSQKQH,2.86
14,KLAEAYLNLGPALRAALASSQKQH,2.06
15,KLAEAYLNLGPALVAALASSQKQH,4.08
16,KLAEAYLNLGPALKAALASSQKQH,1.3
17,KLAEAYLNLGPALDAALASSQKQH,2.06
18,KLAEAYLRLGPALSAALASSQKQH,3.8
19,KLAEAYLPLGPALSAALASSQKQH,2.02
20,KLAEAYLSLGPALSAALASSQKQH,3.78
21,KLAEAYLTLGPALSAALASSQKQH,3.12
22,KLAEAYLWLGPALSAALASSQKQH,3.78
23,KLAEAYLYLGPALSAALASSQKQH,2.59
24,KLAEAYLQLGPALSAALASSQKQH,1.73

row,Variant,protein stability index
1,KLAEAYLVLGPALSAALASSQKQH,3.33
2,KLAEAYLNLGPALSAWLASSQKQH,1.09
3,KLAEAYLNLGPALSATLASSQKQH,2.12
4,KLAEAYLNLGPALSANLASSQKQH,1.95
5,KLAEAYLNLGPALSADLASSQKQH,2.18
6,KLAEAYLNLGPALSAGLASSQKQH,2.4
7,KLAEAYLNLGPALSAQLASSQKQH,2.38
8,KLAEAYLNLGPALSASLASSQKQH,2.41
9,KLAEAYLNLGPALSAHLASSQKQH,2.86
10,KLAEAYLNLGPALSAPLASSQKQH,2.39
11,KLAEAYLNLGPALSAFLASSQKQH,3.07
12,KLAEAYLNLGPALSAILASSQKQH,4.08
13,KLAEAYLNLGPALSAKLASSQKQH,1.97
14,KLAEAYLNLGPALSALLASSQKQH,3.68
15,KLAEAYLNLGPALSAELASSQKQH,1.82
16,KLAEAYLNLGPALSAVLASSQKQH,2.05
17,KLAEAYLNLGPALSAYLASSQKQH,2.95
18,KLAEAYLNLGPALSARLASSQKQH,2.43
19,KLAEAYLNLGPALSAALADSQKQH,1.89
20,KLAEAYLNLGPALSAALAFSQKQH,2.5
21,KLAEAYLNLGPALSAALAASQKQH,4.1
22,KLAEAYLNLGPALSAALACSQKQH,2.07
